From US20050181362A1 (published 2005)

B1: GR LBD (F602S) 521-777 (receptor)
chain: GSVPATLPQLTPTLVSLLEVIEPEVLYAGYDSSVPDSTWRIMTTLNMLGGRQVIAAVKWAKAIPGFRNLHLDDQMTLLQYSWMSLMAFALGWRSYRQSSANLLCFAPDLIINEQRMTLPCMYDQCKHMLYVSSELHRLQVSYEEYLCMKTLLLLSSVPKDGLKSQELFDEIRMTYIKELGKAIVKREGNSSQNWQRFYQLTKLLDSMHEVVENLLNYCFQTFLDKTMSIEFPEMLAEIITNQIPKYSNGNIKKLLFHQK
notes: also called GR(521-777) F602S; cleaved GR LBD

Key:
[1] = biological target: B1; assay: co-crystallization
Procedure: The GR/TIF2/DEX crystals were grown at room temperature in hanging drops containing 3.0 ul of the above protein-ligand solutions, and 0.5 ul of well buffer (50 mM HEPES, pH 7.5-8.5 (preferred pH range is 8.0 to 8.5), and 1.7-2.3M ammonium formate). Crystals were also obtained with mixing of the above protein solution and the well buffer at various volume ratios. Crystals appeared overnight and continously grew to a size up to 300 micron within a week. Before data collection, crystals were transiently mixed with the well buffer that contained an additional 25% glycerol, and were then flash frozen in liquid nitrogen.

[2] = biological target: the molecule itself; assay: X-ray crystal structure

Binder | binding result [1] | binding result [2]
QEPVSPKKKENALLRYLLDKDDTKD (Free peptide used in solution for the stability study and for co-crystallization; No biotin is mentioned for these uses; also called TIF2 peptide; TIF2 fragment) [TIF2 732-756 peptide] | binds | –
B1 | – | binds
